Laboratory results published in US20140295495A1 (Biogen, published 2014).

T1: human antigen that binds to mAb1 (human, UniProt Q96FE5 42-538, limits assumed)
T1 sequence (looked up): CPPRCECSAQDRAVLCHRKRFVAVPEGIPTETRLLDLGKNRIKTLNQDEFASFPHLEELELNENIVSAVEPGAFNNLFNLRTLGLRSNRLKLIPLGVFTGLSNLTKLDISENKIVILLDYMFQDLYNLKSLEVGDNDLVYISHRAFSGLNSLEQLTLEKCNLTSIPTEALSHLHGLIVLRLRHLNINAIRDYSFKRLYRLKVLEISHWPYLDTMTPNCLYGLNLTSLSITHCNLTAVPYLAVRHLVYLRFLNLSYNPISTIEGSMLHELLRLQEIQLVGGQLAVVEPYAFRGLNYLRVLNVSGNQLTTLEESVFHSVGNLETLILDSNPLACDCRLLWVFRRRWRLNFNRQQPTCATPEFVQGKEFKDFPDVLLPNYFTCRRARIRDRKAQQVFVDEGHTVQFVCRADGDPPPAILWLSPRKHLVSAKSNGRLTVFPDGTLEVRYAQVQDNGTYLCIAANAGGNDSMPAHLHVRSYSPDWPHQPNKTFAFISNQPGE

B1: mAb1-C (mAb1, anti-LINGO-1 antibody Li81, aglycosyl human IgG1; preparation with 39% trisulfide at the LC5-HC5 linkage) (antibody, V domains shown)
VH: EVQLLESGGGLVQPGGSLRLSCAASGFTFSAYEMKWVRQAPGKGLEWVSVIGPSGGFTFYADSVKGRFTISRDNSKNTLYLQMNSLRAEDTAVYYCATEGDNDAFDIWGQGTTVTVSS
VL: DIQMTQSPATLSLSPGERATLSCRASQSVSSYLAWYQQKPGQAPRLLIYDASNRATGIPARFSGSGSGTDFTLTISSLEPEDFAVYYCQQRSNWPMYTFGQGTKLEIK
modifications: 39% trisulfide at the LC5-HC5 linkage (heavy-light interchain Cys linkage)
B2: mAb1-A (mAb1, anti-LINGO-1 antibody Li81, aglycosyl human IgG1; preparation with about 0.5% trisulfide at the LC5-HC5 linkage) (antibody, V domains shown)
VH: B1 VH
VL: B1 VL
modifications: about 0.5% trisulfide at the LC5-HC5 linkage (heavy-light interchain Cys linkage)
notes: also called mAb-A

Target: T1, human antigen that binds to mAb1
Assay: direct binding ELISA, antigen coated on the plate, detection with AP-anti-human Fab
Description: Plates were washed 3 times with 350 μL of PBS using a plate washer and blocked with 1% BSA, 0.1% ovalbumin, and 0.1% non-fat dry milk in Hank's balanced salt buffer containing 25 mM HEPES (pH 7.0) for 1 hour at room temperature. Plates were then washed again, and incubated for 1 h with a 3-fold dilution series set up for each test compound (50 μL/well, 8 dilutions) starting at 10 μg/mL and all in 0.1% BSA, 0.1% ovalbumin, and 0.1% non-fat dry milk in Hank's balanced salt buffer containing 25 mM HEPES (pH 7.0), and again washed. […] Plates were read at 405 nm on a Molecular Devices plate reader. EC₅₀ values for binding were calculated from the titration curve using prism software.

| Binder | EC50 [pM] |
| --- | --- |
| B1 | 20 |
| B2 | 20 |
